Test results: publication PMC9352680, “A comprehensive thermodynamic model for RNA binding by the Saccharomyces cerevisiae Pumilio protein PUF4”
Changes are numbered by the printed parent chain. Names and notes keep the numbering of the source.

T1: PUF4 RNA-binding domain (Saccharomyces cerevisiae, UniProt P25339 537-888)
T1 sequence: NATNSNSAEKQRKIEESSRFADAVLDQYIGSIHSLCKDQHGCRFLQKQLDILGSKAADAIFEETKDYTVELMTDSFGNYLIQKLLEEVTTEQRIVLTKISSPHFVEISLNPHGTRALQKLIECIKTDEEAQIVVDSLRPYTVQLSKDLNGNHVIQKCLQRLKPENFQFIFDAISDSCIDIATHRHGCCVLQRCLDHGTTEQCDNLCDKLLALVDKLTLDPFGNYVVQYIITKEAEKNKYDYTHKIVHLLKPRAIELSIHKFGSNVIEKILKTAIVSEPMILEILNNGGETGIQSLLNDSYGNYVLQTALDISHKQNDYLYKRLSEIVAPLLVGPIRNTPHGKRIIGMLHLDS

B1: Ic_S4_P3E.1_K3.1_C3.1_H3.1_A3.1_[T5C]_[A6T]_F3.1_[T7G]_[A8G]_T3.1 (ssRNA)
RNA: UUUGACAACUGAUCGUUCUUUCUUGUACUGGUUCUUUCUCGAUCAGUUGUCUUU
B2: Ic_S4_P3E.1_K3.1_C3.1_H3.1_A3.1_[T5C]_[A6C]_F3.1_[T7A]_[A8C]_T3.1 (ssRNA)
RNA: B1 RNA with U29C, G30A, G31C
B3: Ib_S1_P4E.1_K4.1_C4.1_H4.1_[G2A]_A4.1_F4.1_[A9T]_T4.1 (ssRNA)
RNA: UCUCUUUAUAUAUUUUCUCUU
B4: Ib_S1_P4E.1_K4.1_C4.1_H4.1_[T3C]_A4.1_F4.1_[A9T]_T4.1 (ssRNA)
RNA: UCUCUUUGCAUAUUUUCUCUU
B5: Ia_S1_P4E.1_K4.1_C4.1_H4.1_[G2A]_A4.1_F4.1_T4.1 (ssRNA)
RNA: UCUCUUUAUAUAUUAUCUCUU
B6: Ib_S1_P4E.1_K4.1_C4.1_H4.1_[G2A]_A4.1_F4.1_[A9C]_T4.1 (ssRNA)
RNA: UCUCUUUAUAUAUUCUCUCUU
B7: Ib_S1_P4E.1_K4.1_C4.1_H4.1_[A4G]_A4.1_F4.1_[A9G]_T4.1 (ssRNA)
RNA: UCUCUUUGUGUAUUGUCUCUU
B8: Ib_S1_P4E.1_K4.1_C4.1_H4.1_[G2A]_A4.1_F4.1_[A9G]_T4.1 (ssRNA)
RNA: UCUCUUUAUAUAUUGUCUCUU
B9: Ic_S2_P5E.1_K5.1_C5.1_H5.1_A5.1_[A7C]_F5.1_[T9G]_[A10G]_T5.1 (ssRNA)
RNA: UUUGAUUAAUAUGAUAUCGUUCUUUCUUGUAUUCUGGUUCUUUCUCGAUAUCAUAUUAAUCUUU
B10: Ic_S2_P5E.1_K5.1_C5.1_H5.1_A5.1_[T6G]_[A7G]_F5.1_[T8C]_[A10C]_T5.1 (ssRNA)
RNA: B9 RNA with U33G, C34G, U35C, G36U, G37C
B11: Ic_S2_P5E.1_K5.1_C5.1_H5.1_A5.1_[T6A]_[A7T]_F5.1_[T8C]_[T9G]_[A10G]_T5.1 (ssRNA)
RNA: B9 RNA with U33A, C34U, U35C
B12: Ic_S2_P5E.1_K5.1_C5.1_H5.1_A5.1_[T5A]_[T6C]_[A7T]_F5.1_[T8A]_[T9A]_T5.1 (ssRNA)
RNA: B9 RNA with U32A, U33C, C34U, U35A, G36A, G37A
B13: Ic_S2_P5E.1_K5.1_C5.1_H5.1_A5.1_[T6C]_F5.1_[T8G]_[T9C]_[A10C]_T5.1 (ssRNA)
RNA: B9 RNA with U33C, C34A, U35G, G36C, G37C
B14: Ic_S2_P5E.1_K5.1_C5.1_H5.1_A5.1_[T5C]_F5.1_[T8A]_[T9C]_[A10C]_T5.1 (ssRNA)
RNA: B9 RNA with U32C, C34A, U35A, G36C, G37C
B15: Ic_S2_P5E.1_K5.1_C5.1_H5.1_A5.1_[T5G]_[A7C]_F5.1_[T9C]_[A10G]_T5.1 (ssRNA)
RNA: B9 RNA with U32G, G36C
B16: Ic_S2_P5E.1_K5.1_C5.1_H5.1_A5.1_[T6C]_[A7T]_F5.1_[T8A]_[T9C]_[A10G]_T5.1 (ssRNA)
RNA: B9 RNA with U33C, C34U, U35A, G36C
B17: Ic_S2_P5E.1_K5.1_C5.1_H5.1_A5.1_[T5G]_[A7T]_F5.1_[T8C]_[A10T]_T5.1 (ssRNA)
RNA: B9 RNA with U32G, C34U, U35C, G36U, G37U
B18: Ic_S2_P5E.1_K5.1_C5.1_H5.1_A5.1_[T5A]_[T6A]_F5.1_[T8C]_[T9A]_[A10C]_T5.1 (ssRNA)
RNA: B9 RNA with U32A, U33A, C34A, U35C, G36A, G37C
B19: Ic_S2_P5E.1_K5.1_C5.1_H5.1_A5.1_[T5G]_[T6C]_[A7C]_F5.1_[T8C]_[T9A]_[A10T]_T5.1 (ssRNA)
RNA: B9 RNA with U32G, U33C, U35C, G36A, G37U
B20: Ic_S2_P5E.1_K5.1_C5.1_H5.1_A5.1_[T5C]_[T6A]_[A7T]_F5.1_[T8C]_[T9G]_[A10G]_T5.1 (ssRNA)
RNA: B9 RNA with U32C, U33A, C34U, U35C
B21: Ic_S2_P5E.1_K5.1_C5.1_H5.1_A5.1_[T5A]_[T6A]_[A7T]_F5.1_[T9A]_T5.1 (ssRNA)
RNA: B9 RNA with U32A, U33A, C34U, G36A, G37A
B22: Ic_S2_P5E.1_K5.1_C5.1_H5.1_A5.1_[T5G]_F5.1_[T8A]_[A10T]_T5.1 (ssRNA)
RNA: B9 RNA with U32G, C34A, U35A, G36U, G37U
B23: Ic_S2_P5E.1_K5.1_C5.1_H5.1_A5.1_[T6G]_[A7T]_F5.1_[T8C]_[T9A]_[A10T]_T5.1 (ssRNA)
RNA: B9 RNA with U33G, C34U, U35C, G36A, G37U
B24: Ic_S2_P5E.1_K5.1_C5.1_H5.1_A5.1_[T5A]_[T6A]_[A7T]_F5.1_[T8A]_[T9C]_[A10G]_T5.1 (ssRNA)
RNA: B9 RNA with U32A, U33A, C34U, U35A, G36C
B25: Ic_S2_P5E.1_K5.1_C5.1_H5.1_A5.1_[T6A]_[A7T]_F5.1_[T8C]_[T9C]_[A10T]_T5.1 (ssRNA)
RNA: B9 RNA with U33A, C34U, U35C, G36C, G37U
B26: Ic_S2_P5E.1_K5.1_C5.1_H5.1_A5.1_[T5A]_F5.1_[T8C]_[T9G]_[A10C]_T5.1 (ssRNA)
RNA: B9 RNA with U32A, C34A, U35C, G37C
B27: Ic_S2_P5E.1_K5.1_C5.1_H5.1_A5.1_[T5C]_[T6G]_[A7C]_F5.1_[T8C]_[T9C]_T5.1 (ssRNA)
RNA: B9 RNA with U32C, U33G, U35C, G36C, G37A
B28: Ic_S2_P5E.1_K5.1_C5.1_H5.1_A5.1_[T5C]_[A7C]_F5.1_[T9C]_[A10T]_T5.1 (ssRNA)
RNA: B9 RNA with U32C, G36C, G37U
B29: Ic_S2_P5E.1_K5.1_C5.1_H5.1_A5.1_[T6G]_[A7T]_F5.1_[T8A]_[T9A]_T5.1 (ssRNA)
RNA: B9 RNA with U33G, C34U, U35A, G36A, G37A

molecular target: T1, PUF4 RNA-binding domain; assay: Mg; RNA-MaP; 20 mM Na-HEPES pH 7.4, 30 mM KOAc, 0.75 mM MgCl2, 0.1% Tween-20, 5% glycerol, 0.1 mg/mL BSA, 2 mM DTT; 25 C; 0.0125-409.6 nM protein; conditions: tags: N-His6-TEV cleaved; C-SNAP kept, Cy3B-labelled; label: tethered on chip by stalled RNA polymerase

Compared with B1, B2 is 23-fold lower in Kd: 1840 nM for the first, 79.7 nM for the second. The second binds more tightly here.

Going from B3 to B4, the Kd rises from 413 nM to greater than 2300 nM. The first binds more tightly here.

Going from B5 to B6, the Kd rises from 14.1 nM to 857 nM (61-fold).

Going from B7 to B8, the Kd rises from 18.3 nM to 334 nM (18-fold).

Going from B9 to B10, the Kd rises from 23.5 nM to 543 nM (23-fold).

First: B11
Second: B12
The Kd of the first is 2.6-fold lower: 49.1 nM for the first, 129 nM for the second. The first binds more tightly here.

Compared with B13, B14 is 1.7-fold lower in Kd: 389 nM for the first, 228 nM for the second.

Compared with B15, B16 is 27-fold lower in Kd: 706 nM for the first, 26.1 nM for the second.

B17 and B18 are within 1.5-fold of each other in Kd: 126 nM for the first, 128 nM for the second.

Compared with B19, B20 is 2.6-fold lower in Kd: 819 nM for the first, 315 nM for the second. The second binds more tightly here.

First: B21
Second: B22
The Kd of the first is 150-fold lower: 2.21 nM for the first, 342 nM for the second.

B23 and B24 are within 1.5-fold of each other in Kd: 64 nM for the first, 52 nM for the second.

Going from B25 to B26, the Kd rises from 10.3 nM to 1050 nM (100-fold).

First: B27
Second: B28
The Kd of the first is 41-fold higher: 558 nM for the first, 13.5 nM for the second.

B29 was tested, and the Kd was 53.7 nM.
